For series [1], the target named is EWS^LCD,7YS (UniProt Q01844). The series can be described thus: pelleting assay (phase separation). The conditions noted are these: 50 µM protein, 150 mM NaCl, 20 mM Tris pH 7.4; parent: est. 0.36; read off a plot.
Series [2] addresses EWS^LCD,13YS (UniProt Q01844). The series can be described thus: pelleting assay (phase separation). As to conditions: 50 µM protein, 150 mM NaCl, 20 mM Tris pH 7.4; parent: est. 0.36; read off a plot.
Series [3] concerns the molecule itself. The series is described as follows: turbidity (phase separation) with brightfield imaging; stock diluted into 20 mM Tris buffer with varied protein, NaCl, pH or temperature in microwell plates; absorbance and brightfield images of droplets.
Series [4] concerns the molecule itself. The series is described as follows: co-sedimentation; pelleting of condensates: stock in CAPS pH 11 diluted into 20 mM Tris pH 7.4-7.5, 150 mM NaCl, 18,000 g for 15 min at room temperature, A280 of the supernatant; protein 25-400 µM, mutants at 50 µM.

Where a chain is given by its changes, count along the chain named. In names and notes the source's numbering stands.

Turning to “EWS low-complexity domain (N-terminal 264 residues of RNA-binding protein EWS) (from UniProt Q01844) 7YS”, in series [1], the other: fraction soluble was 0.92.

On to “EWS low-complexity domain (N-terminal 264 residues of RNA-binding protein EWS) (from UniProt Q01844) 13YS”, for which the other: fraction soluble in series [2] came to 1.

B1: EWS low-complexity domain (N-terminal 264 residues of RNA-binding protein EWS) (domain or fragment)
chain: GAMASTDYSTYSQAAAQQGYSAYTAQPTQGYAQTTQAYGQQSYGTYGQPTDVSYTQAQTTATYGQTAYATSYGQPPTGYTTPTAPQAYSQPVQGYGTGAYDTTTATVTTTQASYAAQSAYGTQPAYPAYGQQPAATAPTRPQDGNKPTETSQPQSSTGGYNQPSLGYGQSNYSYPQVPGSYPMQPVTAPPSYPPTSYSSTQPTSYDQSSYSQQNTYGQPSSYGQQSSYGQQSSYGQQPPTSYPPQTGSYSQAPSQYSQQSSSYGQQ
notes: two residue (Gly, Ala) cloning scar left after TEV cleavage; not included in the numbering; 15N-enriched in the intermolecular PRE experiment; unlabelled in turbidity and pelleting assays; also called EWS^LCD; EWS LCD; source: E. coli BL21 DE3 Star, purified (IMAC in urea, TEV cleavage, second IMAC, SEC); not shown: His8, N-terminal, cleaved
As for B1, the binding result in series [3] is “binds”.

B2: EWS^LCD Y44S (domain or fragment)
chain: B1 chain with Y46S
notes: two residue (Gly, Ala) cloning scar left after TEV cleavage; not included in the numbering; source: E. coli BL21 DE3 Star, purified (IMAC, TEV cleavage, SEC); not shown: His8, N-terminal, cleaved
Turning to B2, in series [4], the binding result is given as “binds”.

B3: EWS^LCD Y208S (domain or fragment)
chain: B1 chain with Y210S
notes: as for B2
Regarding B3, in series [4], the binding result is listed as “binds”.

B4: EWS^LCD Y172S (domain or fragment)
chain: B1 chain with Y174S
notes: as for B2
For B4, the binding result in series [4] is reported as “binds”.

B5: EWS^LCD,Y170S/Y172S (domain or fragment)
chain: B1 chain with Y172S, Y174S
notes: two residue (Gly, Ala) cloning scar left after TEV cleavage; not included in the numbering; also called Y170/Y172S; source: E. coli BL21 DE3 Star, purified (IMAC, TEV cleavage, SEC); not shown: His8, N-terminal, cleaved
In the case of B5, the binding result in series [3] is reported as “binds”.

For the origin of these results see paper doi:10.1101/2023.10.27.564484, “Insights into Molecular Diversity within the FET Family: Unraveling Phase Separation of the N-Terminal Low Complexity Domain from RNA-Binding Protein EWS” (bioRxiv, 2023).
